The text below walks through data of paper PMC8386582.

This experiment deals with aCD19A (anti-CD19-A192) Nanoworm. Put plainly: SEC-MALS. A general note: SEC sorts molecules by how far they enter the pores of the column.

What is called stoichiometry N is a count of units in the complex or per binding partner.

B1: aCD19A (anti-CD19-A192) Nanoworm (scFv, V domains shown)
VH: QVQLQQSGAELVRPGSSVKISCKASGYAFSSYWMNWVKQRPGQGLEWIGQIWPGDGDTNYNGKFKGKATLTADESSSTAYMQLSSLASEDSAVYFCARRETTTVGRYYYAMDYWGQGTTVTVSS
VL: DIQLTQSPASLAVSLGQRATISCKASQSVDYDGDSYLNWYQQIPGQPPKLLIYDASNLVSGIPPRFSGSGSGTDFTLNIHPVEKVDAATYHCQQSTEDPWTFGGGTKLEIK
On to B1, for which the stoichiometry N was found to be 186.
